Test results: the supplement of paper PMC9112550, “Optimization of the antimicrobial peptide Bac7 by deep mutational scanning” (BMC Biology, 2022)

These sequences were tested on Escherichia coli TOP10 (assay: shrunken log2 fold change of peptide-encoding DNA abundance (4.5 h post-induction vs induction); higher = less antimicrobial activity (less host growth inhibition)). Details: time post-induction: 4.5 h; library: site-saturation at positions 5, 18, 19, 20.
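Also: peptides expressed intracellularly from a pBAD plasmid library in pooled LB shake-flask culture, induced with 0.3% L-arabinose, DNA abundance read by NGS, three biological replicates, DESeq2 with apeglm shrinkage.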

Row | Sequence | shrunken log2 fold change
1 | RRIRTRPPRLPRPRPRPRSYPRP | 0.0838
2 | RRIRQRPPRLPRPRPRPIDLPRP | -0.194
3 | RRIRERPPRLPRPRPRPPRSPRP | 0.375
4 | RRIRLRPPRLPRPRPRPEKVPRP | -0.0389
5 | RRIRWRPPRLPRPRPRPFVRPRP | -0.127
6 | RRIRGRPPRLPRPRPRPYKYPRP | -0.346
7 | RRIRNRPPRLPRPRPRPSYSPRP | -0.555
8 | RRIRERPPRLPRPRPRPDLMPRP | 0.0435
9 | RRIRGRPPRLPRPRPRPINRPRP | -0.231
10 | RRIRIRPPRLPRPRPRPMKLPRP | -0.519
11 | RRIRDRPPRLPRPRPRPYHMPRP | -0.00968
12 | RRIRLRPPRLPRPRPRPIIIPRP | -0.302
13 | RRIRDRPPRLPRPRPRPQMLPRP | 0.269
14 | RRIRWRPPRLPRPRPRPTNLPRP | -0.0698
15 | RRIRARPPRLPRPRPRPPTCPRP | 0.559
16 | RRIRFRPPRLPRPRPRPTRMPRP | 0.762
17 | RRIRYRPPRLPRPRPRPMNAPRP | -0.00745
18 | RRIRDRPPRLPRPRPRPQWFPRP | 0.0117
19 | RRIRWRPPRLPRPRPRPYFCPRP | -0.298
20 | RRIRCRPPRLPRPRPRPFHSPRP | -0.458
21 | RRIRFRPPRLPRPRPRPGAPPRP | 0.54
22 | RRIRQRPPRLPRPRPRPHNRPRP | -0.372
23 | RRIRNRPPRLPRPRPRPRDRPRP | -0.0372
24 | RRIRGRPPRLPRPRPRPWSWPRP | 1.1
25 | RRIRIRPPRLPRPRPRPRKEPRP | 0.00489

Row | Sequence | shrunken log2 fold change
26 | RRIRWRPPRLPRPRPRPVHKPRP | 0.0181
27 | RRIRVRPPRLPRPRPRPCQRPRP | 0.0972
28 | RRIRKRPPRLPRPRPRPHTAPRP | 0.239
29 | RRIRGRPPRLPRPRPRPRGFPRP | 0.817
30 | RRIRKRPPRLPRPRPRPHCCPRP | -0.0219
31 | RRIRPRPPRLPRPRPRPNRVPRP | -0.275
32 | RRIRCRPPRLPRPRPRPVPSPRP | -0.119
33 | RRIRHRPPRLPRPRPRPGAVPRP | 0.433
34 | RRIRIRPPRLPRPRPRPPQRPRP | 0.27
35 | RRIRERPPRLPRPRPRPVQPPRP | 0.336
36 | RRIRIRPPRLPRPRPRPPWNPRP | -0.403
37 | RRIRIRPPRLPRPRPRPSTKPRP | -1.14
38 | RRIRNRPPRLPRPRPRPEWHPRP | -0.285
39 | RRIRGRPPRLPRPRPRPTGDPRP | 0.782
40 | RRIRQRPPRLPRPRPRPVEEPRP | -0.0284
41 | RRIRIRPPRLPRPRPRPYIPPRP | -0.92
42 | RRIRHRPPRLPRPRPRPAGNPRP | 0.023
43 | RRIRFRPPRLPRPRPRPHFVPRP | -0.176
44 | RRIRKRPPRLPRPRPRPFTDPRP | -0.091
45 | RRIRIRPPRLPRPRPRPQRFPRP | -0.231
46 | RRIRTRPPRLPRPRPRPKREPRP | 0.319
47 | RRIRERPPRLPRPRPRPHPTPRP | 0.0575
48 | RRIRRRPPRLPRPRPRPMYCPRP | -0.574
49 | RRIRIRPPRLPRPRPRPYVPPRP | -0.212
50 | RRIRNRPPRLPRPRPRPHEHPRP | -0.155

Row | Sequence | shrunken log2 fold change
51 | RRIRMRPPRLPRPRPRPGNIPRP | -0.115
52 | RRIRDRPPRLPRPRPRPQYCPRP | -0.207
53 | RRIRARPPRLPRPRPRPYSQPRP | -0.135
54 | RRIRMRPPRLPRPRPRPFADPRP | 2.11
55 | RRIRYRPPRLPRPRPRPLRLPRP | 0.077
56 | RRIRCRPPRLPRPRPRPHCDPRP | -0.579
57 | RRIRCRPPRLPRPRPRPVDSPRP | 0.176
58 | RRIRGRPPRLPRPRPRPSENPRP | 0.359
59 | RRIRFRPPRLPRPRPRPPQWPRP | 0.384
60 | RRIRARPPRLPRPRPRPHIEPRP | -0.0716
61 | RRIRFRPPRLPRPRPRPEPEPRP | 0.864
62 | RRIRVRPPRLPRPRPRPQPWPRP | 0.152
63 | RRIRVRPPRLPRPRPRPSHGPRP | -0.143
64 | RRIRARPPRLPRPRPRPCVAPRP | 0.715
65 | RRIRARPPRLPRPRPRPSNRPRP | -0.457
66 | RRIRARPPRLPRPRPRPCPDPRP | -0.161
67 | RRIRNRPPRLPRPRPRPSFQPRP | -0.274
68 | RRIRHRPPRLPRPRPRPNENPRP | -0.579
69 | RRIRCRPPRLPRPRPRPCWGPRP | -0.195
70 | RRIRARPPRLPRPRPRPPTAPRP | 0.744
71 | RRIRMRPPRLPRPRPRPYIIPRP | -0.151
72 | RRIRVRPPRLPRPRPRPFQWPRP | -0.126
73 | RRIRCRPPRLPRPRPRPKLNPRP | -0.265
74 | RRIRFRPPRLPRPRPRPIVAPRP | -0.112
75 | RRIRGRPPRLPRPRPRPVQKPRP | 0.434

Row | Sequence | shrunken log2 fold change
76 | RRIRTRPPRLPRPRPRPTTHPRP | 0.05
77 | RRIRIRPPRLPRPRPRPKKHPRP | -0.21
78 | RRIRHRPPRLPRPRPRPPKVPRP | 0.0708
79 | RRIRFRPPRLPRPRPRPSMCPRP | -0.714
80 | RRIRERPPRLPRPRPRPIIRPRP | -0.447
81 | RRIRFRPPRLPRPRPRPLNFPRP | -0.452
82 | RRIRVRPPRLPRPRPRPWCVPRP | -0.504
83 | RRIRHRPPRLPRPRPRPWHQPRP | -0.0658
84 | RRIRQRPPRLPRPRPRPCYNPRP | -0.0459
85 | RRIRQRPPRLPRPRPRPHAVPRP | -0.0835
86 | RRIRYRPPRLPRPRPRPSAWPRP | 0.199
87 | RRIRCRPPRLPRPRPRPGYGPRP | -0.273
88 | RRIRCRPPRLPRPRPRPGHIPRP | -0.458
89 | RRIRQRPPRLPRPRPRPLAAPRP | 0.395
90 | RRIRIRPPRLPRPRPRPRWLPRP | 0.119
91 | RRIRQRPPRLPRPRPRPMKHPRP | -0.373
92 | RRIRIRPPRLPRPRPRPNHEPRP | 0.042
93 | RRIRVRPPRLPRPRPRPHDSPRP | 0.0311
94 | RRIRRRPPRLPRPRPRPAPNPRP | 0.976
95 | RRIRYRPPRLPRPRPRPEMGPRP | -0.0771
96 | RRIRFRPPRLPRPRPRPMKGPRP | -0.0547
97 | RRIRIRPPRLPRPRPRPLAAPRP | 0.255
98 | RRIRDRPPRLPRPRPRPACTPRP | 0.642
99 | RRIRTRPPRLPRPRPRPLTPPRP | -0.0473
100 | RRIRSRPPRLPRPRPRPPQSPRP | 0.373

Row | Sequence | shrunken log2 fold change
101 | RRIRIRPPRLPRPRPRPNRIPRP | -0.481
102 | RRIRGRPPRLPRPRPRPFFYPRP | 0.539
103 | RRIRARPPRLPRPRPRPSFSPRP | -0.134
104 | RRIRERPPRLPRPRPRPYRLPRP | -0.102
105 | RRIRVRPPRLPRPRPRPPHNPRP | 0.154
106 | RRIRERPPRLPRPRPRPAGQPRP | -0.195
107 | RRIRLRPPRLPRPRPRPRPAPRP | 0.454
108 | RRIRMRPPRLPRPRPRPYAMPRP | -0.155
109 | RRIRNRPPRLPRPRPRPTCWPRP | 0.696
110 | RRIRDRPPRLPRPRPRPTSGPRP | 0.151
111 | RRIRGRPPRLPRPRPRPTIAPRP | 0.895
112 | RRIRPRPPRLPRPRPRPVKFPRP | 0.184
113 | RRIRRRPPRLPRPRPRPIGTPRP | 0.00964
114 | RRIRTRPPRLPRPRPRPCGSPRP | 0.00855
115 | RRIRDRPPRLPRPRPRPNEYPRP | 0.0406
116 | RRIRYRPPRLPRPRPRPREIPRP | -0.442
117 | RRIRHRPPRLPRPRPRPADRPRP | -0.0209
118 | RRIRRRPPRLPRPRPRPALIPRP | 1.05
119 | RRIRVRPPRLPRPRPRPTMHPRP | -0.103
120 | RRIRVRPPRLPRPRPRPWRCPRP | -0.0179
121 | RRIRSRPPRLPRPRPRPGSMPRP | -0.201
122 | RRIRMRPPRLPRPRPRPQNAPRP | 0.0821
123 | RRIRCRPPRLPRPRPRPPQGPRP | 0.29
124 | RRIRIRPPRLPRPRPRPFHAPRP | -0.388
125 | RRIRFRPPRLPRPRPRPRNHPRP | -0.132

Row | Sequence | shrunken log2 fold change
126 | RRIRWRPPRLPRPRPRPQWLPRP | 0.275
127 | RRIRQRPPRLPRPRPRPEFWPRP | 0.238
128 | RRIRKRPPRLPRPRPRPNAVPRP | 0.385
129 | RRIRTRPPRLPRPRPRPSIKPRP | -0.556
130 | RRIRQRPPRLPRPRPRPPSMPRP | -0.234
131 | RRIRMRPPRLPRPRPRPCWPPRP | 0.218
132 | RRIRIRPPRLPRPRPRPEWIPRP | 0.0384
133 | RRIRFRPPRLPRPRPRPSHRPRP | -0.214
134 | RRIRGRPPRLPRPRPRPMREPRP | -0.00527
135 | RRIRDRPPRLPRPRPRPLAFPRP | 0.334
136 | RRIRCRPPRLPRPRPRPVRLPRP | 0.499
137 | RRIRTRPPRLPRPRPRPYIFPRP | -0.947
138 | RRIRARPPRLPRPRPRPGPSPRP | 0.6
139 | RRIRMRPPRLPRPRPRPNCSPRP | 0.135
140 | RRIRIRPPRLPRPRPRPNEGPRP | -0.45
141 | RRIRQRPPRLPRPRPRPGFYPRP | 0.116
142 | RRIRLRPPRLPRPRPRPMLYPRP | -0.232
143 | RRIRVRPPRLPRPRPRPKQRPRP | 0.157
144 | RRIRKRPPRLPRPRPRPHFDPRP | 0.275
145 | RRIRVRPPRLPRPRPRPVTPPRP | 0.214
146 | RRIRDRPPRLPRPRPRPRFWPRP | 0.935
147 | RRIRDRPPRLPRPRPRPPKDPRP | 0.314
148 | RRIRFRPPRLPRPRPRPQDIPRP | -0.0714
149 | RRIRERPPRLPRPRPRPWVVPRP | -0.151
150 | RRIRKRPPRLPRPRPRPNCQPRP | -0.263
